# From patent US20250027901A1
# Where “and” joins values, the source holds several entries; their conditions need not be identical. Identical values can stand only once. Like-named read-outs stand apart in the source and are kept apart here.
# What was measured:
# [1] = molecular target: SARS-CoV-2 S1 (Sino Biological 40591-V08B1) (SARS-CoV-2) (UniProt P0DTC2)
# [2] = molecular target: snoopTag-msfGFP-3C cleavage site-TwinStrep
# lysozyme [3] = molecular target: lysozyme
# [4] = molecular target: SARS-CoV-2 S1 (Sino Biological 40591-V08B1) (SARS-CoV-2) (UniProt P0DTC2); remark: listed apart in the source
# [5] = molecular target: SARS-CoV-2 Spike-pseudotyped lentivirus (GeneCopoeia CAT. SP101-100) (SARS-CoV-2) (UniProt P0DTC2)
# [6] = molecular target: Cysteine terminated spyTag peptide (…); test: QCMD, nanobody-SpyCatcher coupling to Cys-SpyTag peptide on gold (SpyDirect)
# lysozyme [7] = test: OECT sensor, SpyDirect SARS-CoV-1 nanobody gates after 7-day storage, lysozyme
# [8] = molecular target: SARS-CoV-2 S1 (Sino Biological 40591-V08B1) (SARS-CoV-2) (UniProt P0DTC2); test: OECT sensor, SpyDirect SARS-CoV-1 nanobody gate, 1.2 aM spike (FIG. 4C, saliva)
# Chain of lysozyme (P00698 19-147): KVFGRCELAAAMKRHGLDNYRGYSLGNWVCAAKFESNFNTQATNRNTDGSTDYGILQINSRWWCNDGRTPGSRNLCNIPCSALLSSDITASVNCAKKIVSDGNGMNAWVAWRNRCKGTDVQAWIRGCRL
substance,measurement,setting,value
VHH72-8 aa-spyCatcher-3C cleavage site-His8,Density per cm^2,[1],5.2e+12 per cm^2 and 2.3e+12 per cm^2
same,gained mass (ng/cm^2),[1],290 ng/cm^2 and 659 ng/cm^2
same,gained mass (ng/cm^2),[2],< 1 ng/cm^2
same,normalized response (NR),lysozyme [3],< 15%
same,normalized response (NR),[4],20%
same,normalized response (NR),[5],28%
same,Density per cm^2,[6],7.8e+12 per cm^2
same,gained mass (ng/cm^2),[6],376 ng/cm^2
same,normalized response (NR),lysozyme [7],< 12%
same,normalized response (NR),[8],20%
